In IntAct's records for PubMed 21807993:

B1: E4 ubiquitin-protein ligase UFD2 (Saccharomyces cerevisiae), P54860 (parent)
chain: MTAIEDILQITTDPSDTRGYSLLKSEEVPQGSTLGVDFIDTLLLYQLTENEKLDKPFEYLNDCFRRNQQQKRITKNKPNAESLHSTFQEIDRLVIGYGVVALQIENFCMNGAFINYITGIVSNVNSYTDFLSQIIQRAILEGTALDLLNAVFPTLLEYCNKHVSHFDLNESVIYNNVLTIFELFVTFKPIAEIFTKIDGFFADYSCKPQDFERKTILGPILSLSPIEAAVAIRNYGDNLLRSKQQTAMIHESLQAEHKVVIDRLFFIVDKLVRGSLNSRTDMISYFAHIANKNHLRRADHPPFKELSSNGFMSNITLLLVRFSQPFLDISYKKIDKIDANYFNNPSLFIDLSGETRLNSDFKEADAFYDKNRKTADSKPNFISDCFFLTLTYLHYGLGGTLSFEEKMGSEIKALKEEIEKVKKIAANHDVFARFITAQLSKMEKALKTTESLRFALQGFFAHRSLQLEVFDFICGASTFLIRVVDPEHEFPFKQIKLPLIPDQIGVENVDNADFLRAHAPVPFKYYPEFVVEGPVNYSLYISKYQTSPIFRNPRLGSFVEFTTMVLRCPELVSNPHLKGKLVQLLSVGAMPLTDNSPGFMMDIFEHDELVNKNLLYALLDFYVIVEKTGSSSQFYDKFNSRYSISIILEELYYKIPSYKNQLIWQSQNNADFFVRFVARMLNDLTFLLDEGLSNLAEVHNIQNELDNRARGAPPTREEEDKELQTRLASASRQAKSSCGLADKSMKLFEIYSKDIPAAFVTPEIVYRLASMLNYNLESLVGPKCGELKVKDPQSYSFNPKDLLKALTTVYINLSEQSEFISAVAKDERSFNRNLFVRAVDILGRKTGLASPEFIEKLLNFANKAEEQRKADEEEDLEYGDVPDEFLDPLMYTIMKDPVILPASKMNIDRSTIKAHLLSDSTDPFNRMPLKLEDVTPNEELRQKILCFKKQKKEEAKHKASE

Variants of: B1
Conditions: with cdc48_yeast CDC48, P25694
cdc48_yeast CDC48, P25694, sequence (P25694 whole entry): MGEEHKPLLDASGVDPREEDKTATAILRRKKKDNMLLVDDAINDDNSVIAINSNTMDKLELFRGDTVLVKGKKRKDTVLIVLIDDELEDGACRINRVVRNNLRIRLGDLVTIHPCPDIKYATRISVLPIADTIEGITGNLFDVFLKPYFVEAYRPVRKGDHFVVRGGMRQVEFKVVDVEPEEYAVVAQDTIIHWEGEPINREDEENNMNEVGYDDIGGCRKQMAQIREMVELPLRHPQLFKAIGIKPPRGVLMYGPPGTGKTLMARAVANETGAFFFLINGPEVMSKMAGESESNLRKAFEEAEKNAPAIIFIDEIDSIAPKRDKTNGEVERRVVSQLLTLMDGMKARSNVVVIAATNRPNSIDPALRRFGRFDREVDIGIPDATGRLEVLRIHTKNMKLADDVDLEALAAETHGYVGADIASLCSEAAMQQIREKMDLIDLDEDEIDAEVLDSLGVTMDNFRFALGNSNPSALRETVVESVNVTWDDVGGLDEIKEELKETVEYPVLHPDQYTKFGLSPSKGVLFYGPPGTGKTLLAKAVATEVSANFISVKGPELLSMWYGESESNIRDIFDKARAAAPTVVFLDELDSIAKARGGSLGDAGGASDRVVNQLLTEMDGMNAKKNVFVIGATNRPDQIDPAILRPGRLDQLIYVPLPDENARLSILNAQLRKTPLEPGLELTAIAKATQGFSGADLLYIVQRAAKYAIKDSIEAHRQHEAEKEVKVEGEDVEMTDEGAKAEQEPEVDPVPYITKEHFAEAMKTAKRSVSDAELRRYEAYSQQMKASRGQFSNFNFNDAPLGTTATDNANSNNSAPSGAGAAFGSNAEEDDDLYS

effect of a mutation on the interaction | Variant
disrupting interaction strength | C385Y
disrupting interaction strength | G274D
